Common to all, as to test: SPR; 100 mM NaCl; SPR (Biacore T100, SA chip, steady state): 20 mM Tris-HCl pH 8.8, 10 mM (NH4)2SO4, 0.1% Triton X-100, 100 or 300 mM NaCl; temperature not stated
On the technique in general: Surface plasmon resonance follows binding to a sensor surface in real time, without labels.

The target in one data set is T1, KOD Pol WT (Thermococcus kodakarensis, UniProt P77933 1-406+767-851+1389-1671, internal_change).
T1 sequence: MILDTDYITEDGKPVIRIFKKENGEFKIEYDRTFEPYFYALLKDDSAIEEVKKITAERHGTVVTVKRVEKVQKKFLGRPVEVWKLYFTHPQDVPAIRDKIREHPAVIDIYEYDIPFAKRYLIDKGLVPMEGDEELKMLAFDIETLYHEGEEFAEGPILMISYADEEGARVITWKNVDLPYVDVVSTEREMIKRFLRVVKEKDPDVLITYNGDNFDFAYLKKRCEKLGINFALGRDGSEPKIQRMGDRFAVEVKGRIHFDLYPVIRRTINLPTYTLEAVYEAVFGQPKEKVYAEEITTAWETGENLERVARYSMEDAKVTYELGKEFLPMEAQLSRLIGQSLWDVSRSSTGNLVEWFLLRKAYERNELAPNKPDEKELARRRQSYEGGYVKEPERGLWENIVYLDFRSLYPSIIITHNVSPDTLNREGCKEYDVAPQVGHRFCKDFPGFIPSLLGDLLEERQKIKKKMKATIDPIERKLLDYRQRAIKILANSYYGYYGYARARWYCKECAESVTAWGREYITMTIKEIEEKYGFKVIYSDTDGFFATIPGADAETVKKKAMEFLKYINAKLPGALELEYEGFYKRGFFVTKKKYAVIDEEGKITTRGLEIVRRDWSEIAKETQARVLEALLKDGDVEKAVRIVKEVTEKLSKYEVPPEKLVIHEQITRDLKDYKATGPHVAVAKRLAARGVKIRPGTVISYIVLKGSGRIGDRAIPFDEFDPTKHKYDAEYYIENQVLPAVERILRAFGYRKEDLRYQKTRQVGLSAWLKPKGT
Particulars: protein: recombinant, tags: N-terminal His.

The next data set deals with T2, KODBR3exo Pol (Thermococcus kodakarensis / BR3 chimera, UniProt P77933 1-130+A0A133VA65:160-367+329-406+767-851+1389-1671, internal_change).
T2 sequence: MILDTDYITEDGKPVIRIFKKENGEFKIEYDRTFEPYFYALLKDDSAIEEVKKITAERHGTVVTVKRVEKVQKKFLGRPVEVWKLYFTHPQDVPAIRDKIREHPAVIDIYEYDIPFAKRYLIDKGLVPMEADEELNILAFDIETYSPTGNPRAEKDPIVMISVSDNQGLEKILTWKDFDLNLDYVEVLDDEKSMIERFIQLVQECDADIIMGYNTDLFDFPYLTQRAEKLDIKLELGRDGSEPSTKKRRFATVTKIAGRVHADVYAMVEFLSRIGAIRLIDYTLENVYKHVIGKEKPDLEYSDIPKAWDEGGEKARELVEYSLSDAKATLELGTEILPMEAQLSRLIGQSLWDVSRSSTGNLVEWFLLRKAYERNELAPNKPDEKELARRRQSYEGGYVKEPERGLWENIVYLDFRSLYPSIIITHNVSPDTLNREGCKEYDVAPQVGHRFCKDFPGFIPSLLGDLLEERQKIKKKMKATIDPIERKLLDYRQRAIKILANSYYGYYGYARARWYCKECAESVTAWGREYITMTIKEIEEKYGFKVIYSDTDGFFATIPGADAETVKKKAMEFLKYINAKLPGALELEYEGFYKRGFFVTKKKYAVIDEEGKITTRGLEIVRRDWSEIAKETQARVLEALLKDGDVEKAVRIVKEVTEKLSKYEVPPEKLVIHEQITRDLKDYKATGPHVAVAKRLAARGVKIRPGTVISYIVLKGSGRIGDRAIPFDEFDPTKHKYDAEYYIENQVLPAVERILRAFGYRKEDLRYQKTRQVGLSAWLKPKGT
The note with it: protein: recombinant; label: 3' biotin on template (immobilized); primer pairs with template 3' end; 5' overhang 23 nt of template.

Another data set has as its target T3, KODBR3thumb Pol (Thermococcus kodakarensis / BR3 chimera, UniProt P77933 1-406+767-851+1389-1479+A0A133VA65:621-805, internal_change).
T3 sequence: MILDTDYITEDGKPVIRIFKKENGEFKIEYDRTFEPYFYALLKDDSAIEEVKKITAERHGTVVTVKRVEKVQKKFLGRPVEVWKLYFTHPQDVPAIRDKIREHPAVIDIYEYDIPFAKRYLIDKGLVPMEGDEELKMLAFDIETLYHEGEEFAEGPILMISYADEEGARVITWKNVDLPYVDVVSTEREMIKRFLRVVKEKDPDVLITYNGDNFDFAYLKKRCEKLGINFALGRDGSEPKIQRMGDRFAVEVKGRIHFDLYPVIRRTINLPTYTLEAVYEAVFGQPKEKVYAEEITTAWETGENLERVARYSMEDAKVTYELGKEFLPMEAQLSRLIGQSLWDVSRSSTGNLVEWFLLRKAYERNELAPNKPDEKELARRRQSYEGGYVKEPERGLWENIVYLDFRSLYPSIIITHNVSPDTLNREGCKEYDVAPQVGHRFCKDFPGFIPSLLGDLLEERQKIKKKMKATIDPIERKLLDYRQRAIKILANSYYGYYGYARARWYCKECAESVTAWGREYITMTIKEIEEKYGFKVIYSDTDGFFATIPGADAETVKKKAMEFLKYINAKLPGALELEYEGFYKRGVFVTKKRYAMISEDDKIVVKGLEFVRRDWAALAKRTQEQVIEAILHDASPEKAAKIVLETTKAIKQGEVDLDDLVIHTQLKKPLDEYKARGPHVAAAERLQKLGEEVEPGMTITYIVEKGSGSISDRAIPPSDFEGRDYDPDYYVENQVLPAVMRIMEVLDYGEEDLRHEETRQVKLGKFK
The note with it: protein: recombinant; label: 3' biotin on template (immobilized); primer pairs with template 3' end; 5' overhang 23 nt of template.

B1: ssDNA (ssDNA)
DNA: TTTTTTTTTTTTTTTTTTTTTTTTTTTTTTTTTTTTTTTT
By Kd is commonly meant the free concentration of one partner at which half of the binding sites on the other are occupied at equilibrium, for simple one-to-one binding. With B1, in the data set with KOD Pol WT (label: 5' biotin (immobilized)), the Kd was 32.8 nM.

B2: primer/template (mixed)
DNA 1: GAGGTGGCGTCGGGTGGACGGGTGGATTGAAATTTAGGCTGGCAC
DNA 2: GTGCCAGCCTAAATTTCAATCC
With B2, the Kd with KODBR3exo Pol came out at 6.5 nM; with KODBR3thumb Pol, 12.5 nM; with KOD Pol WT (label: 3' biotin on template (immobilized), primer pairs with template 3' end, 5' overhang 23 nt of template) it was 3.5 nM.

B3: dsDNA (dsDNA)
DNA 1: B2 DNA 1
DNA 2: GTGCCAGCCTAAATTTCAATCCACCCGTCCACCCGACGCCACCTC
In the case of B3, in the data set with KOD Pol WT (label: 3' biotin on strand 1 (immobilized), blunt), the Kd was found to be 239 nM.

These data come from publication PMC6051491, “Dynamic structure mediates halophilic adaptation of a DNA polymerase from the deep-sea brines of the Red Sea”.
